Consider four molecules from paper doi:10.1101/2022.03.07.483330 (bioRxiv, 2022).

In assay [1] the target is human wild-type DLL4 (N-EGF5, residues 27-400) (human, UniProt Q9NR61 27-400). The assay can be described thus: SPR. Background: In SPR one partner is held on a chip, and binding of the other changes the refractive index at the surface.
In another assay the target is DLL4.v2 (N-EGF5) (human, UniProt Q9NR61 27-400, N257P | T271L | F280Y | S301R | Q305P). Nature of the assay: SPR.
Sequence of DLL4.v2 (N-EGF5) (Q9NR61 27-400 N257P/T271L/F280Y/S301R/Q305P): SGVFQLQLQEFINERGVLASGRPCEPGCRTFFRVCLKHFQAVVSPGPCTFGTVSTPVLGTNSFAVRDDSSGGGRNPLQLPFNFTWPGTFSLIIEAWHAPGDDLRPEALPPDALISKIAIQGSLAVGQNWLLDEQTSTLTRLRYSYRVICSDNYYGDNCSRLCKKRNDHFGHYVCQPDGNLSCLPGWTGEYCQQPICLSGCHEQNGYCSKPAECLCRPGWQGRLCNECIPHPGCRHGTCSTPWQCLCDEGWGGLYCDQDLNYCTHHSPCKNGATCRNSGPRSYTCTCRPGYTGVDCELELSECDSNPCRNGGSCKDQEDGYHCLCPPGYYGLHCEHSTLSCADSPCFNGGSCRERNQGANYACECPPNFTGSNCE

Sequence of human wild-type DLL4 (N-EGF5, residues 27-400) (Q9NR61 27-400): as the sequence (Q9NR61 27-400 N257P/T271L/F280Y/S301R/Q305P) above, with P231N, L245T, Y254F, R275S, P279Q counted along it

B1: human Notch2 (EGF6-13, residues 221-530), biotinylated (domain or fragment, UniProt Q04721 221-530, looked up)
chain: LYVPCAPSPCVNGGTCRQTGDFTFECNCLPGFEGSTCERNIDDCPNHRCQNGGVCVDGVNTYNCRCPPQWTGQFCTEDVDECLLQPNACQNGGTCANRNGGYGCVCVNGWSGDDCSENIDDCAFASCTPGSTCIDRVASFSCMCPEGKAGLLCHLDDACISNPCHKGALCDTNPLNGQYICTCPQGYKGADCTEDVDECAMANSNPCEHAGKCVNTDGAFHCECLKGYAGPRCEMDINECHSDPCQNDATCLDKIGGFTCLCMPGFKGVHCELEINECQSNPCVNNGQCVDKVNRFQCLCPPGFTGPVCQ
modifications: biotin on the C-terminal BAP-tag (BirA)
As for B1, the binding result (in assay [1]; in the assay with DLL4.v2 (N-EGF5)) was “binds” each time.

B2: mouse Notch1 (EGF6-13, residues 221-526), biotinylated (domain or fragment, UniProt Q01705 221-526, looked up)
chain: PCSPSPCQNGGTCRPTGDTTHECACLPGFAGQNCEENVDDCPGNNCKNGGACVDGVNTYNCRCPPEWTGQYCTEDVDECQLMPNACQNGGTCHNTHGGYNCVCVNGWTGEDCSENIDDCASAACFQGATCHDRVASFYCECPHGRTGLLCHLNDACISNPCNEGSNCDTNPVNGKAICTCPSGYTGPACSQDVDECALGANPCEHAGKCLNTLGSFECQCLQGYTGPRCEIDVNECISNPCQNDATCLDQIGEFQCICMPGYEGVYCEINTDECASSPCLHNGHCMDKINEFQCQCPKGFNGHLCQ
modifications: biotin on the C-terminal BAP-tag (BirA)
On to B2, for which the binding result (in assay [1]; in the assay with DLL4.v2 (N-EGF5)) was “binds” each time.

B3: human Notch4 (EGF7-12, residues 276-511), biotinylated (domain or fragment, UniProt Q99466 276-511, looked up)
chain: NPDNCVSHQCQNGGTCQDGLDTYTCLCPETWTGWDCSEDVDECETQGPPHCRNGGTCQNSAGSFHCVCVSGWGGTSCEENLDDCIAATCAPGSTCIDRVGSFSCLCPPGRTGLLCHLEDMCLSQPCHGDAQCSTNPLTGSTLCLCQPGYSGPTCHQDLDECLMAQQGPSPCEHGGSCLNTPGSFNCLCPPGYTGSRCEADHNECLSQPCHPGSTCLDLLATFHCLCPPGLEGQLCE
modifications: biotin on the C-terminal BAP-tag (BirA)
As to B3, the binding result (in assay [1]; with DLL4.v2 (N-EGF5)) was “binds” each time.

B4: human Notch3 (EGF5-12, residues 197-505), biotinylated (domain or fragment, UniProt Q9UM47 197-505, looked up)
chain: PAVPCAPSPCRNGGTCRQSGDLTYDCACLPGFEGQNCEVNVDDCPGHRCLNGGTCVDGVNTYNCQCPPEWTGQFCTEDVDECQLQPNACHNGGTCFNTLGGHSCVCVNGWTGESCSQNIDDCATAVCFHGATCHDRVASFYCACPMGKTGLLCHLDDACVSNPCHEDAICDTNPVNGRAICTCPPGFTGGACDQDVDECSIGANPCEHLGRCVNTQGSFLCQCGRGYTGPRCETDVNECLSGPCRNQATCLDRIGQFTCICMAGFTGTYCEVDIDECQSSPCVNGGVCKDRVNGFSCTCPSGFSGSTCQ
modifications: biotin on the C-terminal BAP-tag (BirA)
For the molecule B4, the binding result (in assay [1]; with DLL4.v2 (N-EGF5)) was “binds” throughout.
